Results reported in the Immune Epitope Database (IEDB).

How the values were obtained:
Assay in all cases: IEDB peptide-MHC binding, purified MHC/competitive/radioactivity; filed as Kd, often an IC50 or EC50 that approximates it; ≥ and ≤ were set here for values at or beyond the usual limits of such assays
[1] = target: HLA-B*15:03
[2] = target: HLA-A*02:01
[3] = target: HLA-A*33:01
[4] = target: HLA-A*11:01
[5] = target: HLA-A*02:02
[6] = target: HLA-A*02:06
[7] = target: HLA-A*03:01
[8] = target: HLA-A*68:02
[9] = target: HLA-A*68:01
[10] = target: HLA-B*35:01
[11] = target: HLA-A*02:03
[12] = target: HLA-B*54:01
[13] = target: HLA-B*07:02
[14] = target: HLA-B*51:01
[15] = target: HLA-A*31:01
[16] = target: HLA-B*53:01
[17] = target: HLA-B*08:01
[18] = target: HLA-A*01:01; details: source organism: Hepacivirus hominis
[19] = target: HLA-A*30:01; details: source organism: Vaccinia virus WR
[20] = target: HLA-A*32:01; details: source organism: Vaccinia virus WR
[21] = target: HLA-B*15:01; details: source organism: Vaccinia virus WR
[22] = source organism: Vaccinia virus Copenhagen
[23] = source organism: Vaccinia virus WR
[24] = source organism: Hepacivirus hominis
[25] = source organism: SARS coronavirus Tor2
[26] = source organism: Triticum aestivum

LKSVETSSL
Kd [1, 22]: 3.76 nM

SLTIKDSSNK
Kd [2, 23]: ≥ 69400 nM | Kd [3, 23]: ≥ 70000 nM | Kd [4, 23]: ≥ 25300 nM | Kd [5, 23]: ≥ 70000 nM | Kd [6, 23]: ≥ 69800 nM | Kd [7, 23]: 9780 nM | Kd [8, 23]: ≥ 69800 nM | Kd [9, 23]: ≥ 52700 nM | Kd [10, 23]: ≥ 46500 nM | Kd [11, 23]: ≥ 70400 nM | Kd [12, 23]: ≥ 69900 nM | Kd [13, 23]: ≥ 52300 nM | Kd [14, 23]: ≥ 69600 nM | Kd [15, 23]: ≥ 70000 nM | Kd [16, 23]: ≥ 69900 nM

SSVREVFYF
Kd [1, 23]: 123 nM

HSKKKCDDL
Kd [17, 24]: ≥ 57700 nM | Kd [2, 24]: ≥ 69400 nM | Kd [3, 24]: ≥ 77700 nM | Kd [4, 24]: ≥ 77900 nM | Kd [5, 24]: ≥ 70000 nM | Kd [6, 24]: ≥ 77100 nM | Kd [7, 24]: ≥ 78000 nM | Kd [8, 24]: ≥ 69800 nM | Kd [9, 24]: ≥ 77700 nM | Kd [10, 24]: ≥ 77400 nM | Kd [11, 24]: ≥ 70400 nM | Kd [12, 24]: ≥ 78100 nM | Kd [13, 24]: ≥ 66800 nM | Kd [14, 24]: ≥ 51900 nM | Kd [15, 24]: ≥ 77900 nM | Kd [16, 24]: ≥ 57000 nM | Kd [18]: ≥ 53900 nM

FMLMETMFF
Kd [1, 23]: 0.188 nM

CLNNSLMSF
Kd [1, 22]: 0.768 nM

FPQAAPHGVV
Kd [10, 25]: 1680 nM | Kd [12, 25]: 15.8 nM | Kd [13, 25]: 82.2 nM | Kd [14, 25]: 159 nM | Kd [16, 25]: 4140 nM

KIGMFNLTF
Kd [17, 23]: ≥ 36100 nM | Kd [19]: 4760 nM | Kd [20]: 0.268 nM | Kd [1, 23]: 12.6 nM | Kd [21]: 0.209 nM

SPYYIRKESY
Kd [10, 23]: 101 nM | Kd [12, 23]: 669 nM | Kd [13, 23]: 65.4 nM | Kd [14, 23]: ≥ 69600 nM | Kd [16, 23]: 646 nM

NPLFHGGEPI
Kd [10, 23]: 3550 nM | Kd [12, 23]: 382 nM | Kd [13, 23]: 8.02 nM | Kd [14, 23]: 4460 nM | Kd [16, 23]: 312 nM

FPGDKTSYWV
Kd [10, 23]: 88.8 nM | Kd [12, 23]: 5.36 nM | Kd [13, 23]: 261 nM | Kd [14, 23]: 50.1 nM | Kd [16, 23]: 14.4 nM

DPMVIENGI
Kd [10, 23]: 2360 nM | Kd [12, 23]: 485 nM | Kd [13, 23]: 388 nM | Kd [14, 23]: 34.6 nM | Kd [16, 23]: 3860 nM

DPSERVFKKI
Kd [10, 23]: ≥ 69900 nM | Kd [12, 23]: ≥ 43300 nM | Kd [13, 23]: ≥ 69600 nM | Kd [14, 23]: ≥ 46700 nM | Kd [16, 23]: 18200 nM

LPAMCNVY
Kd [10, 26]: 41.3 nM | Kd [12, 26]: 2820 nM | Kd [13, 26]: ≥ 21200 nM | Kd [14, 26]: 5760 nM | Kd [16, 26]: 1070 nM

RIRRFRRPM
Kd [17, 23]: 8.94 nM | Kd [19]: 4.4 nM | Kd [20]: 769 nM | Kd [1, 23]: 30.2 nM | Kd [21]: 36.2 nM

LPVIFLSIF
Kd [1, 23]: 162 nM

FPGQQQPF
Kd [10, 26]: ≥ 87800 nM | Kd [12, 26]: ≥ 87700 nM | Kd [13, 26]: ≥ 37400 nM | Kd [14, 26]: ≥ 30600 nM | Kd [16, 26]: ≥ 87700 nM

KTSSFKISK
Kd [17, 23]: ≥ 31400 nM | Kd [19]: 88.1 nM | Kd [20]: ≥ 23000 nM | Kd [1, 23]: ≥ 68000 nM | Kd [21]: ≥ 62200 nM
